From article PMC4433160 come the findings set out here.

Series [1] addresses T1, human beta defensin 2 (HBD2) (human, UniProt O15263 24-64).
T1 chain: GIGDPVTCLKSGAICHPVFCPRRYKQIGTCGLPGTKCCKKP
In words: microscopy of complex.

Series [2] has as its target T2, human beta defensin 3 (HBD3) (human, UniProt P81534 23-67).
T2 chain: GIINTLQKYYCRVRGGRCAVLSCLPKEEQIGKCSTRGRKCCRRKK
In words: aggregate formation.

On to GGTGCATCGATGCAGGGGGG (ssDNA, phosphorothioate at some nucleotides (underlining lost in text)) [FITC-CpG ODN D35], for which, in series [1], the binding result is “binds”.

Take ATCGACTCTCGAGCGTTCTC (ssDNA, phosphorothioate (underlining lost in text)) [CpG ODN K3]: in series [2], the binding result is reported as “binds”.
